From article PMC549075

Target: Lamb brain tubulin (lamb)

B1: HIV-1 Tat protein, Oyi strain (natural protein)
chain: MEPVDPRLEPWKHPGSQPKTASNNCYCKRCCLHCQVCFTKKGLGISYGRKKRRQRRRAPQDSKTHQVSLSKQPASQPRGDPTGPKESKKKVERETETDPED
ΔOD 350 nm plateau of 15 μM tubulin at 37°C with 8 μM compound: 0.8 ΔOD 350 nm | ΔOD ratio (plateau with 8 μM compound divided by plateau of tubulin alone): 2.63
